Reference: publication PMC9911985 (Journal of Molecular Biology, 2023)
Where no end group is shown, it is not given here. MBP = not defined here

B1: 6xHis-MBP-selenos 34–59 (domain or fragment)
chain: {6xHis-MBP}-GWYIVFSCILLYVVFQKLSARLRALR
modifications: reading uncertain
B2: 6xHis-MBP-selenos 40–65 (domain or fragment)
chain: {6xHis-MBP}-SCILLYVVFQKLSARLRALRQRQLDR
modifications: reading uncertain
B3: 6xHis-MBP-selenos 40–59 (domain or fragment)
chain: {6xHis-MBP}-SCILLYVVFQKLSARLRALR
modifications: reading uncertain
B4: 6xHis-MBP-selenos 34–65 (domain or fragment)
chain: {6xHis-MBP}-GWYIVFSCILLYVVFQKLSARLRALRQRQLDR
modifications: reading uncertain

Biological target: nsp7 with a C-terminal strep-tag II (nsp7-strep), SARS-CoV-2 nonstructural protein 7 (SARS-CoV-2, UniProt P0DTD1 3860-3942)
Experiment: pull-down

| Binder | binding result |
| --- | --- |
| B1 | binds |
| B2 | binds |
| B3 | binds |
| B4 | binds |
